The target in the assay is T1, Pox5 (Candida tropicalis, UniProt P08790).
T1 construct: made in house; host or cells: E. coli Rosetta II BL21, pET26b; crude cell lysate (10 ug per reaction)
The class given is biochemical, Candida strain ATCC20336. The procedure: To express an enzyme, a colony from each transformation of Rosetta cells was used to start a 5 ml overnight culture of LB containing the antibiotics kanamycin (to select for pET26b) and chloramphenicol (to select for a second plasmid found in Rosetta II cells that mediates improved translation of eukaryotic proteins expressed in E. coli) grown at 37° C. The next morning, the overnight culture was used to seed 30 ml of LB containing kanamycin and chloramphenicol to an OD600 reading of 0.1. The 30 ml cultures were grown at 37° C. for 2 hours and then placed on ice for 10 minutes. To induce expression, isopropyl-beta-D-thiogalactopyranoside (IPTG) was added to the culture to a final concentration of 0.1 mM. In some cases induction was performed using Novagen Overnight Express Autoinduction System 1 (CAT#71300-3). The cells were then shaken at 15° C. overnight to express the acyl CoA oxidase.
To test the activity of the acyl CoA oxidase, cells from the overnight induction were pelleted at 1046×g at 4° C. in 50 ml conical tubes. The cell pellets were resuspended in 1 ml of 50 mM KPO4, pH 7.6, 50 μM FAD buffer and then transferred to a 2 ml centrifuge tube. A Misonix Sonicator 3000 (QSonica, Newtown, Conn.) was used to lyse the cells, which were sonicated at a power setting of 2 for 2 pulses of 20 seconds each. The lysates were placed on ice for 30 seconds in between each pulse. To obtain a supernatant, cell debris was pelleted at […] for 10 mins in a 4° C. microcentrifuge. The supernatant was transferred to a 1.5 ml centrifuge tube and Bradford assays (Thermoscientific) were performed on cell lysates according to manufacturer's specifications to determine protein concentration in preparation for the acyl-CoA oxidase assays. A Beckman Coulter DTX-800 Multimode Detector spectrophotometer was used for the assays. The spectrophotometer was set to read for 5 minutes at 500 nm, 30° C. Each reaction was 200 μl in volume and contained 10 μg of cell lysate in 50 mM KPO4, pH 7.6, […] BSA, 0.05% Triton X-100, 250 μM fatty acyl-coA substrate, 50 μM FAD, 10 U horseradish peroxidase, 25 mM p-hydroxybenzoic acid and 1 mM 4-aminoantipyrine. Fatty acyl-CoA substrates covered a range from hexanoyl CoA (six carbon chain length) to oleoyl CoA (eighteen carbon chain length).
Pox4 and Pox5 from Candida strain ATCC20336 were cloned into pET26b for expression in E. coli and assayed for acyl CoA oxidase activity in vitro. The activity profiles of the genetically modified Pox4 and Pox5 were compared to the activity profile of the wild type enzymes. To alter their substrate activity profile, site directed mutagenesis was performed on several locations in Pox4 and Pox5. Complementary primers encoding the point mutation(s) were used to amplify the coding sequences of Pox4 or Pox5 generating two to four PCR products that were then “stitched” together to regenerate the entire coding region using overlap extension PCR (FIG. 22). […] PCR was performed using oligonucleotides A and B to produce a product with overlap to a PCR product generated using oligonucleotides C and D. The A-B product was used as a primer for the C-D product, and vice versa, for overlap extension. Several mutagenic primer pairs, for example, like the B-C primer pair, were used to produce mutations at different locations that were “stitched” together, i.e. A-B, C-D, E-F, etc. to generate an intact, full length coding region. […]

Where [1] appears, read: wild type, expressed in E. coli.

The values that follow come from patent US9765346B2, “Biological methods for preparing a fatty dicarboxylic acid” (Verdezyne, Inc., priority 2011, dated 2017).

Consider “Pox5: native acyl-CoA oxidase isozyme of Candida strain ATCC20336”, for which, for the setting “FIG. 21, wild type”, the “activity on C6 and C8 substrates” value is “low activity”; the “activity on substrates below C10” value was “decrease in activity”. Besides, the substrate specificity result (native isozyme) is “narrow substrate specificity”. Under setting [1], the “activity on a C6 substrate” value is on record as “not very active” and the “substrates on which active” value is listed as “C8 all the way to C18:1”.
